Measurements reported in the MegaScale stability set (Tsuboyama et al. 2023).

B1: EHEE_rd2_0196 (parent)
chain: TETRTFDSEEEAKKAQKEAEKQGRTVTITRRDDRWEVRFD

Variants of: B1
Assay: folding stability dG (cDNA display proteolysis); higher = more stable
Conditions: PBS, room temperature

Going from QETRTFDSEEEAKKAQKEAEKQGRTVTITRRDDRWEVRFD to PETRTFDSEEEAKKAQKEAEKQGRTVTITRRDDRWEVRFD, the “folding stability dG” value rises from 2.98 kcal/mol to 3.02 kcal/mol.

Going from NETRTFDSEEEAKKAQKEAEKQGRTVTITRRDDRWEVRFD to KETRTFDSEEEAKKAQKEAEKQGRTVTITRRDDRWEVRFD, the “folding stability dG” value falls from 2.93 kcal/mol to 2.76 kcal/mol.

Compared with EETRTFDSEEEAKKAQKEAEKQGRTVTITRRDDRWEVRFD, RETRTFDSEEEAKKAQKEAEKQGRTVTITRRDDRWEVRFD is lower in “folding stability dG” value: 2.93 kcal/mol for the first, 2.81 kcal/mol for the second.

Compared with SETRTFDSEEEAKKAQKEAEKQGRTVTITRRDDRWEVRFD, HETRTFDSEEEAKKAQKEAEKQGRTVTITRRDDRWEVRFD is lower in “folding stability dG” value: 3.13 kcal/mol for the first, 3.05 kcal/mol for the second.

Going from TETRTRDSEEEAKKAQKEAEKQGRTVTITRRDDRWEVRFD to TETRTQDSEEEAKKAQKEAEKQGRTVTITRRDDRWEVRFD, the “folding stability dG” value rises from 0.142 kcal/mol to 0.251 kcal/mol.

Compared with TETRTPDSEEEAKKAQKEAEKQGRTVTITRRDDRWEVRFD, TETRTHDSEEEAKKAQKEAEKQGRTVTITRRDDRWEVRFD is higher in “folding stability dG” value: -0.092 kcal/mol for the first, 0.637 kcal/mol for the second.

First: TETRTWDSEEEAKKAQKEAEKQGRTVTITRRDDRWEVRFD
Second: TETRTGDSEEEAKKAQKEAEKQGRTVTITRRDDRWEVRFD
The “folding stability dG” value of the first is higher: 1.28 kcal/mol for the first, 0.049 kcal/mol for the second.

Going from TETRTSDSEEEAKKAQKEAEKQGRTVTITRRDDRWEVRFD to TETRTLDSEEEAKKAQKEAEKQGRTVTITRRDDRWEVRFD, the “folding stability dG” value rises from 0.282 kcal/mol to 1.22 kcal/mol.

Going from TETRTTDSEEEAKKAQKEAEKQGRTVTITRRDDRWEVRFD to TETRTNDSEEEAKKAQKEAEKQGRTVTITRRDDRWEVRFD, the “folding stability dG” value falls from 0.546 kcal/mol to 0.174 kcal/mol.

Going from TETRTEDSEEEAKKAQKEAEKQGRTVTITRRDDRWEVRFD to TETRTMDSEEEAKKAQKEAEKQGRTVTITRRDDRWEVRFD, the “folding stability dG” value rises from 0.25 kcal/mol to 1.24 kcal/mol.

Compared with TETRTVDSEEEAKKAQKEAEKQGRTVTITRRDDRWEVRFD, TETRTKDSEEEAKKAQKEAEKQGRTVTITRRDDRWEVRFD is lower in “folding stability dG” value: 1.65 kcal/mol for the first, 0.23 kcal/mol for the second.

Going from TETRTYDSEEEAKKAQKEAEKQGRTVTITRRDDRWEVRFD to TETRTIDSEEEAKKAQKEAEKQGRTVTITRRDDRWEVRFD, the “folding stability dG” value falls from 3.19 kcal/mol to 0.565 kcal/mol.

First: TETRTADSEEEAKKAQKEAEKQGRTVTITRRDDRWEVRFD
Second: TETRTDDSEEEAKKAQKEAEKQGRTVTITRRDDRWEVRFD
The “folding stability dG” value of the first is higher: 0.553 kcal/mol for the first, 0.02 kcal/mol for the second.

First: TEVRTFDSEEEAKKAQKEAEKQGRTVTITRRDDRWEVRFD
Second: TECRTFDSEEEAKKAQKEAEKQGRTVTITRRDDRWEVRFD
The “folding stability dG” value of the first is higher: 3.38 kcal/mol for the first, 3.22 kcal/mol for the second.

Compared with TEQRTFDSEEEAKKAQKEAEKQGRTVTITRRDDRWEVRFD, TELRTFDSEEEAKKAQKEAEKQGRTVTITRRDDRWEVRFD is higher in “folding stability dG” value: 2.46 kcal/mol for the first, 3.15 kcal/mol for the second.

First: TERRTFDSEEEAKKAQKEAEKQGRTVTITRRDDRWEVRFD
Second: TEIRTFDSEEEAKKAQKEAEKQGRTVTITRRDDRWEVRFD
The “folding stability dG” value of the first is lower: 2.54 kcal/mol for the first, 3.35 kcal/mol for the second.

Going from TEMRTFDSEEEAKKAQKEAEKQGRTVTITRRDDRWEVRFD to TEWRTFDSEEEAKKAQKEAEKQGRTVTITRRDDRWEVRFD, the “folding stability dG” value rises from 3.03 kcal/mol to 3.06 kcal/mol.

Going from TEARTFDSEEEAKKAQKEAEKQGRTVTITRRDDRWEVRFD to TEKRTFDSEEEAKKAQKEAEKQGRTVTITRRDDRWEVRFD, the “folding stability dG” value falls from 2.66 kcal/mol to 2.48 kcal/mol.

First: TEFRTFDSEEEAKKAQKEAEKQGRTVTITRRDDRWEVRFD
Second: TEDRTFDSEEEAKKAQKEAEKQGRTVTITRRDDRWEVRFD
The “folding stability dG” value of the first is higher: 3.2 kcal/mol for the first, 1.93 kcal/mol for the second.

First: TEYRTFDSEEEAKKAQKEAEKQGRTVTITRRDDRWEVRFD
Second: TESRTFDSEEEAKKAQKEAEKQGRTVTITRRDDRWEVRFD
The “folding stability dG” value of the first is higher: 3.11 kcal/mol for the first, 2.62 kcal/mol for the second.

Going from TEPRTFDSEEEAKKAQKEAEKQGRTVTITRRDDRWEVRFD to TENRTFDSEEEAKKAQKEAEKQGRTVTITRRDDRWEVRFD, the “folding stability dG” value falls from 2.73 kcal/mol to 2.33 kcal/mol.

Going from TEGRTFDSEEEAKKAQKEAEKQGRTVTITRRDDRWEVRFD to TEHRTFDSEEEAKKAQKEAEKQGRTVTITRRDDRWEVRFD, the “folding stability dG” value rises from 2.17 kcal/mol to 2.55 kcal/mol.

Compared with TEERTFDSEEEAKKAQKEAEKQGRTVTITRRDDRWEVRFD, TETLTFDSEEEAKKAQKEAEKQGRTVTITRRDDRWEVRFD is higher in “folding stability dG” value: 2.08 kcal/mol for the first, 3.43 kcal/mol for the second.

Going from TETQTFDSEEEAKKAQKEAEKQGRTVTITRRDDRWEVRFD to TETMTFDSEEEAKKAQKEAEKQGRTVTITRRDDRWEVRFD, the “folding stability dG” value rises from 2.93 kcal/mol to 3.24 kcal/mol.

Compared with TETHTFDSEEEAKKAQKEAEKQGRTVTITRRDDRWEVRFD, TETNTFDSEEEAKKAQKEAEKQGRTVTITRRDDRWEVRFD is lower in “folding stability dG” value: 2.77 kcal/mol for the first, 2.11 kcal/mol for the second.

First: TETKTFDSEEEAKKAQKEAEKQGRTVTITRRDDRWEVRFD
Second: TETVTFDSEEEAKKAQKEAEKQGRTVTITRRDDRWEVRFD
The “folding stability dG” value of the first is lower: 2.9 kcal/mol for the first, 2.99 kcal/mol for the second.

Going from TETFTFDSEEEAKKAQKEAEKQGRTVTITRRDDRWEVRFD to TETITFDSEEEAKKAQKEAEKQGRTVTITRRDDRWEVRFD, the “folding stability dG” value falls from 3.15 kcal/mol to 3.1 kcal/mol.

First: TETTTFDSEEEAKKAQKEAEKQGRTVTITRRDDRWEVRFD
Second: TETDTFDSEEEAKKAQKEAEKQGRTVTITRRDDRWEVRFD
The “folding stability dG” value of the first is higher: 2.54 kcal/mol for the first, 1.6 kcal/mol for the second.

Compared with TETGTFDSEEEAKKAQKEAEKQGRTVTITRRDDRWEVRFD, TETYTFDSEEEAKKAQKEAEKQGRTVTITRRDDRWEVRFD is higher in “folding stability dG” value: 1.85 kcal/mol for the first, 3.12 kcal/mol for the second.

Going from TETATFDSEEEAKKAQKEAEKQGRTVTITRRDDRWEVRFD to TETWTFDSEEEAKKAQKEAEKQGRTVTITRRDDRWEVRFD, the “folding stability dG” value rises from 2.65 kcal/mol to 3.49 kcal/mol.

Compared with TETETFDSEEEAKKAQKEAEKQGRTVTITRRDDRWEVRFD, TETPTFDSEEEAKKAQKEAEKQGRTVTITRRDDRWEVRFD is lower in “folding stability dG” value: 2.36 kcal/mol for the first, 1.25 kcal/mol for the second.

With TETSTFDSEEEAKKAQKEAEKQGRTVTITRRDDRWEVRFD the “folding stability dG” value was 2.3 kcal/mol.
